Experimental data from patent US20230303994.
Numbering of substitutions follows the chain as printed.

B1: trypsin variant SEQ ID NO: 53 (protein)
chain: IVGGYTCAANSIPYQVSLNSGSHRCGGSLINSQWVVSAAHCYKPRIQVRLGEHNIDVLEGNEQFINAAKIITHPNFNGNTLDNDIMLIKLSSPATLNSRVATVSLPRSCAAAGTECLISGWGNTKSSGSSYPSLLQCLKAPVLSDSSCKSSYPGQITGNMICVGFLEGGKDACQGDSGGPVVCNGQLQGIVSSGYGCAQKNKPGVYTKVCNYVNWIQQTIAAN
- Purity Insulin Glargine (pre-pro-insulin glargine): 81.3 area %
- Yield (pre-pro-insulin glargine): > 80%
- desArg (pre-pro-insulin glargine): < 0.5 area %
- desThr (pre-pro-insulin glargine): 2.1 area %
- Activity PPI cleavage (pre-pro-human insulin): yes
- Selectivity (pre-pro-human insulin): >90%

B2: trypsin variant SEQ ID NO: 56 (protein)
chain: B1 chain with P44S, D56N
- Purity Insulin Glargine (pre-pro-insulin glargine): 85.3 area %
- Yield (pre-pro-insulin glargine): > 90%
- desArg (pre-pro-insulin glargine): < 0.5 area %
- desThr (pre-pro-insulin glargine): 2 area %
- Activity PPI cleavage (pre-pro-human insulin): yes
- Selectivity (pre-pro-human insulin): >90%

B3: trypsin variant SEQ ID NO: 98 (protein)
chain: B1 chain with D56H, G78P, R99A, R107T, K125A, Y131M, K170A, A172S
- Purity Insulin Glargine (pre-pro-insulin glargine): 89.4 area %
- Yield (pre-pro-insulin glargine): > 90%
- desArg (pre-pro-insulin glargine): 0.9 area %
- desThr (pre-pro-insulin glargine): 2.7 area %
- Activity PPI cleavage (pre-pro-human insulin): yes
- Selectivity (pre-pro-human insulin): >90%

B4: trypsin variant SEQ ID NO: 90 (protein)
chain: B1 chain with D56H, G78P, R99H, R107T, K125A, Y131M, A172S
- Purity Insulin Glargine (pre-pro-insulin glargine): 89.5 area %
- Yield (pre-pro-insulin glargine): > 90%
- desArg (pre-pro-insulin glargine): 0.9 area %
- desThr (pre-pro-insulin glargine): 0.2 area %
- Activity PPI cleavage (pre-pro-human insulin): yes
- Selectivity (pre-pro-human insulin): >90%

B5: trypsin variant SEQ ID NO: 81 (protein)
chain: B1 chain with P44S, D56H, G78P, R99H, R107T, K125A, Y131M
- Purity Insulin Glargine (pre-pro-insulin glargine): 89.7 area %
- Yield (pre-pro-insulin glargine): > 90%
- desArg (pre-pro-insulin glargine): 1.2 area %
- desThr (pre-pro-insulin glargine): 0.5 area %
- Activity PPI cleavage (pre-pro-human insulin): yes
- Selectivity (pre-pro-human insulin): >90%

B6: trypsin variant SEQ ID NO: 88 (protein)
chain: B1 chain with D56H, G78P, R99H, R107T, K125S, Y131M, A172S
- Purity Insulin Glargine (pre-pro-insulin glargine): 84.3 area %
- Yield (pre-pro-insulin glargine): > 90%
- desArg (pre-pro-insulin glargine): 0.7 area %
- desThr (pre-pro-insulin glargine): 1.9 area %
- Activity PPI cleavage (pre-pro-human insulin): yes
- Selectivity (pre-pro-human insulin): >90%

B7: trypsin variant SEQ ID NO: 84 (protein)
chain: B1 chain with D56H, G78P, R99N, R107T, K125S, Y131M, A172S
- Purity Insulin Glargine (pre-pro-insulin glargine): 85.4 area %
- Yield (pre-pro-insulin glargine): > 90%
- desArg (pre-pro-insulin glargine): 0.6 area %
- desThr (pre-pro-insulin glargine): 1.6 area %
- Activity PPI cleavage (pre-pro-human insulin): yes
- Selectivity (pre-pro-human insulin): >90%

B8: trypsin variant SEQ ID NO: 83 (protein)
chain: B1 chain with D56H, G78P, R99N, R107T, K125S, Y131M
- Purity Insulin Glargine (pre-pro-insulin glargine): 89 area %
- Yield (pre-pro-insulin glargine): > 90%
- desArg (pre-pro-insulin glargine): < 0.5 area %
- desThr (pre-pro-insulin glargine): 1.2 area %
- Activity PPI cleavage (pre-pro-human insulin): yes
- Selectivity (pre-pro-human insulin): >90%

B9: trypsin variant SEQ ID NO: 10 (protein)
chain: B1 chain with P44S, R99T
- Purity Insulin Glargine (pre-pro-insulin glargine): 82.7 area %
- Yield (pre-pro-insulin glargine): > 90%
- desArg (pre-pro-insulin glargine): < 0.5 area %
- desThr (pre-pro-insulin glargine): 2.6 area %
- Activity PPI cleavage (pre-pro-human insulin): yes
- Selectivity (pre-pro-human insulin): >90%

B10: trypsin variant SEQ ID NO: 91 (protein)
chain: B1 chain with D56H, G78P, R99A, R107T, K125S, Y131M
- Purity Insulin Glargine (pre-pro-insulin glargine): 86.8 area %
- Yield (pre-pro-insulin glargine): > 90%
- desArg (pre-pro-insulin glargine): 1 area %
- desThr (pre-pro-insulin glargine): 0.3 area %
- Activity PPI cleavage (pre-pro-human insulin): yes
- Selectivity (pre-pro-human insulin): >90%

B11: trypsin variant SEQ ID NO: 78 (protein)
chain: B1 chain with P44S, D56H, G78P, R99H, R107T, K125C
- Purity Insulin Glargine (pre-pro-insulin glargine): 85.1 area %
- Yield (pre-pro-insulin glargine): > 90%
- desArg (pre-pro-insulin glargine): 0.5 area %
- desThr (pre-pro-insulin glargine): 1.6 area %
- Activity PPI cleavage (pre-pro-human insulin): yes
- Selectivity (pre-pro-human insulin): >80%

B12: trypsin variant SEQ ID NO: 97 (protein)
chain: B1 chain with D56H, G78P, R99A, R107T, K125A, Y131M, K170A
- Purity Insulin Glargine (pre-pro-insulin glargine): 89.4 area %
- Yield (pre-pro-insulin glargine): > 90%
- desArg (pre-pro-insulin glargine): < 0.5 area %
- desThr (pre-pro-insulin glargine): 1.2 area %
- Activity PPI cleavage (pre-pro-human insulin): yes
- Selectivity (pre-pro-human insulin): >90%

B13: trypsin variant SEQ ID NO: 79 (protein)
chain: B1 chain with D56H, G78P, R99H, K125A, Y131M
- Purity Insulin Glargine (pre-pro-insulin glargine): 87.8 area %
- Yield (pre-pro-insulin glargine): > 90%
- desArg (pre-pro-insulin glargine): 0.7 area %
- desThr (pre-pro-insulin glargine): 0.3 area %
- Activity PPI cleavage (pre-pro-human insulin): yes
- Selectivity (pre-pro-human insulin): >90%

B14: trypsin variant SEQ ID NO: 73 (protein)
chain: B1 chain with P44S, G78A
- Purity Insulin Glargine (pre-pro-insulin glargine): 83 area %
- Yield (pre-pro-insulin glargine): > 90%
- desArg (pre-pro-insulin glargine): < 0.5 area %
- desThr (pre-pro-insulin glargine): 2.2 area %
- Activity PPI cleavage (pre-pro-human insulin): yes
- Selectivity (pre-pro-human insulin): >90%

B15: trypsin variant SEQ ID NO: 11 (protein)
chain: B1 chain with P44S, R99N
- Purity Insulin Glargine (pre-pro-insulin glargine): 84.1 area %
- Yield (pre-pro-insulin glargine): > 90%
- desArg (pre-pro-insulin glargine): < 0.5 area %
- desThr (pre-pro-insulin glargine): 2.2 area %
- Activity PPI cleavage (pre-pro-human insulin): yes
- Selectivity (pre-pro-human insulin): >90%

B16: trypsin variant SEQ ID NO: 95 (protein)
chain: B1 chain with D56H, G78P, R99H, K125S, Y131M, K170A
- Purity Insulin Glargine (pre-pro-insulin glargine): 90 area %
- Yield (pre-pro-insulin glargine): > 90%
- desArg (pre-pro-insulin glargine): 1 area %
- desThr (pre-pro-insulin glargine): 0.6 area %
- Activity PPI cleavage (pre-pro-human insulin): yes
- Selectivity (pre-pro-human insulin): >90%

B17: trypsin variant SEQ ID NO: 93 (protein)
chain: B1 chain with P44S, G78P, R99N, R107T, K125C, Y131M, K170A
- Purity Insulin Glargine (pre-pro-insulin glargine): 71.3 area %
- Yield (pre-pro-insulin glargine): > 75%
- desArg (pre-pro-insulin glargine): 0.7 area %
- desThr (pre-pro-insulin glargine): 0.3 area %
- Activity PPI cleavage (pre-pro-human insulin): yes
- Selectivity (pre-pro-human insulin): >90%

B18: trypsin variant SEQ ID NO: 100 (protein)
chain: B1 chain with G78P, R99H, R107T, K125C, Y131M, K170A
- Purity Insulin Glargine (pre-pro-insulin glargine): 80 area %
- Yield (pre-pro-insulin glargine): > 80%
- desArg (pre-pro-insulin glargine): 0.7 area %
- desThr (pre-pro-insulin glargine): 0.3 area %
- Activity PPI cleavage (pre-pro-human insulin): yes
- Selectivity (pre-pro-human insulin): >90%

B19: trypsin variant SEQ ID NO: 94 (protein)
chain: B1 chain with D56H, R99N, K125C, Y131M, K170A
- Purity Insulin Glargine (pre-pro-insulin glargine): 85.2 area %
- Yield (pre-pro-insulin glargine): > 90%
- desArg (pre-pro-insulin glargine): 0.8 area %
- desThr (pre-pro-insulin glargine): 0.3 area %
- Activity PPI cleavage (pre-pro-human insulin): yes
- Selectivity (pre-pro-human insulin): >90%

B20: trypsin variant SEQ ID NO: 85 (protein)
chain: B1 chain with D56H, G78P, R99H, R107T, K125C, Y131M
- Purity Insulin Glargine (pre-pro-insulin glargine): 85.4 area %
- Yield (pre-pro-insulin glargine): > 90%
- desArg (pre-pro-insulin glargine): 1.1 area %
- desThr (pre-pro-insulin glargine): 0.2 area %
- Activity PPI cleavage (pre-pro-human insulin): yes
- Selectivity (pre-pro-human insulin): >90%

B21: trypsin variant SEQ ID NO: 80 (protein)
chain: B1 chain with P44S, D56H, G78P, R99H, R107T, K125S, Y131M
- Purity Insulin Glargine (pre-pro-insulin glargine): 90.1 area %
- Yield (pre-pro-insulin glargine): > 90%
- desArg (pre-pro-insulin glargine): 0.9 area %
- desThr (pre-pro-insulin glargine): 0.5 area %
- Activity PPI cleavage (pre-pro-human insulin): yes
- Selectivity (pre-pro-human insulin): >90%

B22: trypsin variant SEQ ID NO: 9 (protein)
chain: B1 chain with P44S, R99Y
- Purity Insulin Glargine (pre-pro-insulin glargine): 85.2 area %
- Yield (pre-pro-insulin glargine): > 90%
- desArg (pre-pro-insulin glargine): < 0.5 area %
- desThr (pre-pro-insulin glargine): 3.6 area %
- Activity PPI cleavage (pre-pro-human insulin): yes
- Selectivity (pre-pro-human insulin): >90%

B23: trypsin variant SEQ ID NO: 86 (protein)
chain: B1 chain with G78P, R99A, R107T, K125S, Y131M
- Purity Insulin Glargine (pre-pro-insulin glargine): 79.3 area %
- Yield (pre-pro-insulin glargine): > 80%
- desArg (pre-pro-insulin glargine): 0.8 area %
- desThr (pre-pro-insulin glargine): 0.1 area %
- Activity PPI cleavage (pre-pro-human insulin): yes
- Selectivity (pre-pro-human insulin): >90%

B24: trypsin variant SEQ ID NO: 89 (protein)
chain: B1 chain with D56H, G78P, R99H, R107T, K125A, Y131M
- Purity Insulin Glargine (pre-pro-insulin glargine): 88.1 area %
- Yield (pre-pro-insulin glargine): > 90%
- desArg (pre-pro-insulin glargine): 0.5 area %
- desThr (pre-pro-insulin glargine): 1.2 area %
- Activity PPI cleavage (pre-pro-human insulin): yes
- Selectivity (pre-pro-human insulin): >90%

B25: trypsin variant SEQ ID NO: 87 (protein)
chain: B1 chain with D56H, G78P, R99H, R107T, K125S, Y131M
- Purity Insulin Glargine (pre-pro-insulin glargine): 83.8 area %
- Yield (pre-pro-insulin glargine): > 80%
- desArg (pre-pro-insulin glargine): 0.6 area %
- desThr (pre-pro-insulin glargine): 0.3 area %
- Activity PPI cleavage (pre-pro-human insulin): yes
- Selectivity (pre-pro-human insulin): >90%

B26: trypsin variant SEQ ID NO: 74 (protein)
chain: B1 chain with P44S, G78P
- Purity Insulin Glargine (pre-pro-insulin glargine): 82.4 area %
- Yield (pre-pro-insulin glargine): > 80%
- desArg (pre-pro-insulin glargine): < 0.5 area %
- desThr (pre-pro-insulin glargine): 2.1 area %
- Activity PPI cleavage (pre-pro-human insulin): yes
- Selectivity (pre-pro-human insulin): >90%

B27: trypsin variant SEQ ID NO: 82 (protein)
chain: B1 chain with D56H, G78P, R99H, K125C, Y131M
- Purity Insulin Glargine (pre-pro-insulin glargine): 83.8 area %
- Yield (pre-pro-insulin glargine): > 80%
- desArg (pre-pro-insulin glargine): 0.6 area %
- desThr (pre-pro-insulin glargine): 0.3 area %
- Activity PPI cleavage (pre-pro-human insulin): yes
- Selectivity (pre-pro-human insulin): >90%

B28: trypsin variant SEQ ID NO: 77 (protein)
chain: B1 chain with D56H, R99H, R107T, K125C, Y131M
- Purity Insulin Glargine (pre-pro-insulin glargine): 88.2 area %
- Yield (pre-pro-insulin glargine): > 90%
- desArg (pre-pro-insulin glargine): 0.5 area %
- desThr (pre-pro-insulin glargine): 1.6 area %
- Activity PPI cleavage (pre-pro-human insulin): yes
- Selectivity (pre-pro-human insulin): >90%

B29: trypsin variant SEQ ID NO: 92 (protein)
chain: B1 chain with D56H, G78P, R99A, R107T, K125C, Y131M
- Purity Insulin Glargine (pre-pro-insulin glargine): 88.1 area %
- Yield (pre-pro-insulin glargine): > 90%
- desArg (pre-pro-insulin glargine): 0.9 area %
- desThr (pre-pro-insulin glargine): 0.6 area %
- Activity PPI cleavage (pre-pro-human insulin): yes
- Selectivity (pre-pro-human insulin): >90%

B30: trypsin variant SEQ ID NO: 57 (protein)
chain: B1 chain with P44S, D56H
- Purity Insulin Glargine (pre-pro-insulin glargine): 87.5 area %
- Yield (pre-pro-insulin glargine): > 90%
- desArg (pre-pro-insulin glargine): < 0.5 area %
- desThr (pre-pro-insulin glargine): 2.3 area %
- Activity PPI cleavage (pre-pro-human insulin): yes
- Selectivity (pre-pro-human insulin): >90%

B31: trypsin variant SEQ ID NO: 96 (protein)
chain: B1 chain with G78P, R99H, K125S, Y131M, K170A
- Purity Insulin Glargine (pre-pro-insulin glargine): 78.7 area %
- Yield (pre-pro-insulin glargine): > 80%
- desArg (pre-pro-insulin glargine): 0.7 area %
- desThr (pre-pro-insulin glargine): 0.3 area %
- Activity PPI cleavage (pre-pro-human insulin): yes
- Selectivity (pre-pro-human insulin): >90%

B32: trypsin variant SEQ ID NO: 99 (protein)
chain: B1 chain with P44S, D56H, G78P, R99N, R107T, K125S, K170A
- Purity Insulin Glargine (pre-pro-insulin glargine): 89.2 area %
- Yield (pre-pro-insulin glargine): > 90%
- desArg (pre-pro-insulin glargine): 0.9 area %
- desThr (pre-pro-insulin glargine): 1 area %
- Activity PPI cleavage (pre-pro-human insulin): yes
- Selectivity (pre-pro-human insulin): >80%
